Experimental data published in patent publication US20130266574A1 (Regeneron, published 2013).

T1: full-length hANGPTL4 (amino acid residues 26-406 of SEQ ID NO:476) with a C-terminal hexa-histidine tag (human, UniProt Q9BY76 26-406)
T1 construct: also called hANGPTL4-His; hANGPTL4(26-406)-His
T1 sequence: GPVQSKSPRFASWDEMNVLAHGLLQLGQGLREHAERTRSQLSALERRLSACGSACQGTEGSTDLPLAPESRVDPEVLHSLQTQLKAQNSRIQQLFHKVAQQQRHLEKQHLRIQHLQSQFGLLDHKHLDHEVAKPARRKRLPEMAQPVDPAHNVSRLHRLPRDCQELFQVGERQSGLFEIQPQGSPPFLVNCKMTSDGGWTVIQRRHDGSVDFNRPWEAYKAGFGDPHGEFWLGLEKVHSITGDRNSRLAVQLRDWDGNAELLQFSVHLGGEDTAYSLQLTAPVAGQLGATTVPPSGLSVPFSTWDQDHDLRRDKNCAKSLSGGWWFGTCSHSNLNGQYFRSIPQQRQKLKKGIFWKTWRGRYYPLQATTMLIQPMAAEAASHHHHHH

T2: amino acid residues 26-148 of human ANGPTL4 fused in-line to mouse IgG2a (hANGPTL4-mFc) (human)
T2 chain: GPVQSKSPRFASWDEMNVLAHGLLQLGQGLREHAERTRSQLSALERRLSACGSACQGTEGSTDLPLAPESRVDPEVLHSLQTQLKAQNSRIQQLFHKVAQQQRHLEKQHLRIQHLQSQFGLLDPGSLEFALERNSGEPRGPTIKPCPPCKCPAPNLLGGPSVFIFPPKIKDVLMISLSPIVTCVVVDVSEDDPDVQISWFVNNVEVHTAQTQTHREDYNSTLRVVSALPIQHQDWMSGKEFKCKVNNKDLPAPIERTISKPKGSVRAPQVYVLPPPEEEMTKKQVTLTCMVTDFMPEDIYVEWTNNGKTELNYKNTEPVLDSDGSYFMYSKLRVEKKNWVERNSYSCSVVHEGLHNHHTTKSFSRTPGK

T3: N-terminally biotinylated hANGPTL3 peptide (R36-I68 of SEQ ID NO:485) (human, N-terminal biotin)
T3 construct: also called hANGPTL3-Nterm biotin
T3 peptide: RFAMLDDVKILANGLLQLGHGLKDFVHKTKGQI

T4: hANGPTL4 peptide (R34-L66 of SEQ ID NO:476) (human)
T4 peptide: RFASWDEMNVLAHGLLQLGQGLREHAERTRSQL

T5: hANGPTL3 peptide (R36-I68 of SEQ ID NO:485) (human)
T5 peptide: T3 peptide

T6: N-terminally biotinylated hANGPTL4 peptide (R34-L66 of SEQ ID NO:476) (human, N-terminal biotin)
T6 construct: also called hANGPTL4-Nterm biotin
T6 peptide: T4 peptide

T7: cynomolgus monkey ANGPTL4 N-terminal region (amino acid residues 1-130 of SEQ ID NO:490) with a C-terminal … (cynomolgus monkey (Macaca fascicularis), UniProt Q9BY76 26-130 (human entry))
T7 construct: also called MfANGPTL4(1-130)-His
T7 chain: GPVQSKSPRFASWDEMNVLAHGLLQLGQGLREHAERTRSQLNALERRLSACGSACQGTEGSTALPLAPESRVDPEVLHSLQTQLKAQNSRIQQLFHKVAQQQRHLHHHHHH

B1: H1H284P (antibody, V domains shown)
VH: QVQLVESGGGVVQPGRSLRLSCAASGFTFSSYGMHWVRQAPGKGLEWMAVISFDGGNKNNADSVKGRFTISRDNSKNTLYLQMNSLRAEDTAVYYCAKEGDRSGHPYFYYYGLDVWGQGTTVTVS
VL: DIQLTQSPSFLSASVGDRVTITCWASQGISSYLAWYQQKPGKAPKLLIYAASTLQSGVPSRFSGSGSETEFTLTISSLQPEDFATYYCQQLHSYPLTFGGGTKVEIK
notes: also called entire H1H284 mAb; Full mAb
B2: H1H268P (antibody, V domains shown)
VH: QVQLQESGAGLLKPSETLSLTCTVYGGSFSIHHWTWIRHPPGKGLEWIGEINHRGSTNYNPSLKSRVTISIDTSKNQFSLKLSAVTAADTAVYYCARGLRFLDWLSSYFDYWGQGTLVTVSS
VL: DIQMTQSPSSLSASVGDRVTITCRASQGISDYLAWYQQKPGKVPNLLIYAASALQSGVPSRFSGSGSGTDFTLTISSLQPEDVATYYCQNYNTAPLTFGGGTKVEIK
notes: also called entire H1H268 mAb; Full mAb

What was measured:
[1] = biological target: T1, full-length hANGPTL4 (amino acid …); test: SPR (Biacore), 25° C., pH 7.2, antigen amino-coupled 450 RU
Method: (§1) Kinetic analysis was performed to measure kₐ and kd, and KD values and half-life of antigen/antibody complex dissociation were calculated. The results are shown in Table 4 (H1H268P) and Table 5 (H1H284P).

[2] = biological target: T1, full-length hANGPTL4 (amino acid …); test: cell-based or functional assay
[3] = biological target: T2, amino acid residues 26-148 of human …; test: cell-based or functional assay
[4] = biological target: T3, N-terminally biotinylated hANGPTL3 …; test: SPR (Biacore), antibody captured on anti-human Fc, peptide injected
Method: (§2) Further, the binding affinities of H1H268P and H1H284P for various ANGPTL3 and ANGPTL4 peptides were also determined by BIACORE™ system. Briefly, H1H268P (1348±11 RU) and H1H284P (868±13 RU) were captured over anti-human Fc surface and various concentrations (62.5 nM-500 nM) of the hANGPTL3 and hANGPTL4 peptides were injected. […] Kinetic analysis was performed to measure kₐ and kd, and KD values and half-life of antigen/antibody complex dissociation were calculated. NB: No binding under the experimental conditions described.

[5] = biological target: T4, hANGPTL4 peptide (R34-L66 of SEQ ID …); test: as above
Method: as §2

[6] = biological target: T5, hANGPTL3 peptide (R36-I68 of SEQ ID …); test: as above
Method: as §2

[7] = biological target: T6, N-terminally biotinylated hANGPTL4 …; test: as above
Method: as §2

[8] = biological target: T7, cynomolgus monkey ANGPTL4 N-terminal …; test: SPR (Biacore), 25° C., pH 7.2, antigen amino-coupled 1,028 RU
Method: as §1

Kd [1] | koff [1] | kon [1] | t1/2 [1] | % Inhibition of hANGPTL4 Activity (LPL lipase test), hANGPTL4-His (10 nM) [2] | % Inhibition of hANGPTL4 Activity (LPL lipase test), hANGPTL4-mFc (2 nM) [3] | binding result [4] | binding result [6] | Kd [8] | koff [8] | kon [8] | t1/2 [8] | other results | Binder
105 pM | 8.85e-05 s⁻¹ | 850000 M⁻¹ s⁻¹ | 2.17 h | 90% | 82% | no binding (tested: 62.5 nM-500 nM) | no binding (tested: 62.5 nM-500 nM) | 125 pM | 5.83e-05 s⁻¹ | 467000 M⁻¹ s⁻¹ | 3.3 h | binding result [5]: no binding (tested: 500 nM); binding result [7]: no binding (tested: 500 nM) | B1
408 pM | 0.0002 s⁻¹ | 489000 M⁻¹ s⁻¹ | 0.967 h | 80% | 76% | no binding (tested: 62.5 nM-500 nM) | no binding (tested: 62.5 nM-500 nM) | 122 pM | 4.76e-05 s⁻¹ | 392000 M⁻¹ s⁻¹ | 4.05 h | Kd [5]: 56300 pM; koff [5]: 0.000365 s⁻¹; kon [5]: 6490 M⁻¹ s⁻¹; t1/2 [5]: 0.533 h; Kd [7]: 64800 pM; koff [7]: 0.000294 s⁻¹; kon [7]: 4530 M⁻¹ s⁻¹; t1/2 [7]: 0.65 h | B2
